Target: the molecule itself
Assay: oligomer bands on immunoblot of immunoprecipitated protein (reducing SDS-PAGE); quadriceps lysates (50 mM Tris, 150 mM NaCl, 1% NP-40, pH 7.4) of hSSPN-TG, mSSPN-TG, WT and SSPN-null mice immunoprecipitated with anti-SSPN monoclonal antibodies on protein A/G PLUS-agarose; eluates resolved by SDS-PAGE under reducing conditions and blotted with E2 or 10B8

B1: human sarcospan (hSSPN) (natural protein, UniProt Q14714 1-243, looked up)
chain: MGKNKQPRGQQRQGGPPAADAAGPDDMEPKKGTGAPKECGEEEPRTCCGCRFPLLLALLQLALGIAVTVVGFLMASISSSLLVRDTPFWAGIIVCLVAYLGLFMLCVSYQVDERTCIQFSMKLLYFLLSALGLTVCVLAVAFAAHHYSQLTQFTCETTLDSCQCKLPSSEPLSRTFVYRDVTDCTSVTGTFKLFLLIQMILNLVCGLVCLLACFVMWKHRYQVFYVGVRICSLTASEGPQQKI
notes: sarcospan, human, GenBank AF016028; hSSPN-TG muscle also holds endogenous mouse SSPN; also called human SSPN; source: transgenic overexpression in mouse skeletal muscle (hSSPN-TG, Ln3), quadriceps muscle lysate
stoichiometry N: 2

B2: mouse sarcospan (mSSPN) (natural protein, UniProt Q62147 1-216, looked up)
chain: MGRKPSPRAQELPEEEARTCCGCRFPLLLALLQLALGIAVTVLGFLMASISPSLLVRDTPFWAGSIVCVVAYLGLFMLCVSYQVDERTCVQFSMKVFYFLLSALGLMVCMLAVAFAAHHYSLLAQFTCETSLDSCQCKLPSSEPLSRAFVYRDVTDCTSVTGTFKLFLIIQMVLNLVCGLVCLLACFVMWKHRYQVFYVGVGLRSLMASDGQLPKA
notes: sarcospan, mouse, GenBank U02487; 25-kDa protein with four transmembrane domains; seen as monomer and as a dimer band on reducing SDS-PAGE of immunoprecipitates; also called mouse SSPN; murine SSPN; source: endogenous (wild type) or transgenic overexpression (mSSPN-TG, Ln28), mouse quadriceps muscle lysate
stoichiometry N: 2
